Source: patent US20090324700A1, “METHODS AND COMPOSITIONS FOR THE INHIBITION OF CATHEPSINS” (priority 2003, published 2009)

What was measured:
Type in all cases: biochemical
cathepsin B = target: T1, cathepsin B (Homo sapiens, UniProt P07858); experiment: Kinetics of cathepsin B inhibition by Spi2A
T1 construct: purchased Calbiochem or Athens Research and Technology

human cathepsin H = target: T2, human cathepsin H (Homo sapiens, UniProt P09668); experiment: Protease specificity of Spi2A: cathepsin H; conditions: protease 20 nM, Spi2A 200 nM, 1 h at 37° C; FIG. 6B
T2 construct: purchased Calbiochem or Athens Research and Technology
T2 sequence (P09668 98-335): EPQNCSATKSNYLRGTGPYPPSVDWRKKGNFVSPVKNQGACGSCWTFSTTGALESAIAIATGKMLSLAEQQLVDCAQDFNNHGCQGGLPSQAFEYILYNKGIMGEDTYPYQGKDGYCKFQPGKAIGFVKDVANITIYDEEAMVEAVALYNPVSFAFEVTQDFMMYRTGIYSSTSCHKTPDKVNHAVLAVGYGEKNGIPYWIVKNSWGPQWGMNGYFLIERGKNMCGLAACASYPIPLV
Protocol: (§1) Protease specificity of Spi2A. RelA^−/− MEFs were transduced with retrovirus encoding Spi2A with a C-terminal 3×FLAG epitope tag and Spi2A-3×FLAG purified using a method described previously (Cooley et al., 1998). Briefly, cells (3×10^9) were lysed and Spi2A-3×FLAG (75 μg) purified by batch Q-Fast Flow ion-exchange chromatography (Pharmacia Biotech) after elution at 160-220 mM NaCl followed by anti-FLAG antibody columns, performed according to manufacturer's instructions (Sigma-Aldrich). Spi2A-3×FLAG was dialysed into PBS and stored as aliquots at −80° C. until needed.
(§2) Proteases were purchases from the manufacturers (Calbiochem or Athens Research and Technology) except granzymes A and B which were purified as described (Hanna et al., 1993) and cathespin V and K, which were purified as described (Bromme et al., 1999; Linnevers et al., 1997). Proteases (20 nM) were incubated in the appropriate assay buffer with Spi2A at 200 nM (at least 10-fold excess of inhibitor to maintain pseudo-first order conditions) for 1 h at 37° C. Control samples included only the enzyme, without the inhibitor. At the end of 1 h protease activity was assayed. […] Substrate hydrolysis was measured in a fluorescence microtiter plate reader (Spectramax Gemini XS, Molecular Devices). Percentage inhibition was calculated from the residual enzyme activity compared to no Spi2A controls. […]

human cathepsin L = target: T3, human cathepsin L (Homo sapiens, UniProt P07711); experiment: Protease specificity of Spi2A: cathepsin L; conditions: protease 20 nM, Spi2A 200 nM, 1 h at 37° C; FIG. 6B
T3 construct: purchased Calbiochem or Athens Research and Technology
Protocol: as §1, §2

T3 sequence (P07711 114-333): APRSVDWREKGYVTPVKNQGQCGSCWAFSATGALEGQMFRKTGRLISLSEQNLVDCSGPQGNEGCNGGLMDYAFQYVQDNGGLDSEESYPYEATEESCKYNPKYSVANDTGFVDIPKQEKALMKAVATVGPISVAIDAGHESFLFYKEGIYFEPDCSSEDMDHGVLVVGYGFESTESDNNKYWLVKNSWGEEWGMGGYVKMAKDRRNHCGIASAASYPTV

B1: Spi2A: murine Spi2A polypeptide, SEQ ID NO:2; purified as C-terminal 3×FLAG protein or expressed from MIGR1 retrovirus in cells and bone-marrow chimeras (protein, listed as Mus musculus)
chain: MAGVSPAVFGCPDVTLGRNTAVREVQENVTSVDSLTLVSSNTDFAFSLYRKLVLKNPDENVVFSPFSICTALALLSLGAKSNTLKEILEGLKFNLTETPEPDIHQGFRYLLDLLSQPGNQVQISTGSALFIEKHLQILAEFKEKARALYQAEAFTADFQQPLKATKLINDYVSNHTQGKIKELISGLKESTLMVLVNYIYFKGKWKNPFDPNDTFKSEFYLDEKRSVIVSMMKTGYLTTPYFRDEELSCTVVELKYTGNASAMFILPDQGRMQQVEASLQPETLRKWKNSLKPRMIHELRLPKFSISTDYSLEHILPELGIREVFSTHADLSAITGTKDLRVSQVVHKAVLDVAEKGTEAAAATGMAGVGCCAVFDFLEIFFNRPFLMIISDTKAHIALFMAKVTNPERSTNFPNGEGASSQRLESKRLCFGDPLCLIGQ
modifications: C-terminal 3xFLAG tag
notes: purified as C-terminal 3×FLAG protein or expressed from MIGR1 retrovirus in cells and bone-marrow chimeras
B1 was tested, and the “second-order association rate constant for the inhibition of cathepsin B” value (cathepsin B; 20 nM cathepsin B, 5 μM (Z-FR)2-R110, 200 or 400 nM Spi2A, pseudo-first order conditions) was > 10^6 M^−1 s^−1, the “Inhibition of cathepsin B within the dead time of the measurement” value (cathepsin B; dead time ˜30 s, 200 or 400 nM Spi2A) was “completely inhibited” and the “Inhibition of protease by Spi2A (percentage inhibition)” value (human cathepsin H) was “extended to all of the lysosomal, papain-like proteases that were examined”. The “Inhibition of protease by Spi2A (percentage inhibition)” value (human cathepsin L) was “extended to all of the lysosomal, papain-like proteases that were examined”.
